Results published in US20060286568A1.

Assays:
eGFP-EAAT4 = assay: cell-based or functional assay
eGFP-EAAT3 = assay: cell-based or functional assay

Row | % of diffraction spots not moving (TIRF microscopy, HEK293 cells) (eGFP-EAAT4) | % of diffraction spots not moving (TIRF microscopy, HEK293 cells) (eGFP-EAAT3) | diffraction spots moving at or near the membrane (TIRF microscopy, HEK293 cells) (eGFP-EAAT4) | Substance
1 | 67.5% | – | – | myc-tagged mutant β-III spectrin with the 39 bp American SCA5 deletion (SP-Δ39; p.E532_M544del) (from UniProt O15020 2-2390)
2 | 94.2% | 58.7% | 5% | myc-tagged wildtype β-III spectrin (SP-WT) (from UniProt O15020 2-2390)
